Assay results reported in a protein production outcome set (Wang et al. 2014).

Assay: label from the status in PepcDB records

Row | Sequence | protein production
1 | MGSTQYWDLKSGVCTRIFGGHQGTITCMDLCKNRLVSGGRDCQVKVWDVDTGKCLKTFRHKDPILATRINDTYIVSSCERGLVKVWHIAMAQLVKTLSGHEGAVKCLFFDQWHLLSGSTDGLVMAWSMVGKYERCLMAFKHPKEVLDVSLLFLRVISACADGKIRIYNFFNGNCMKVIKANGRGDPVLSFFIQGNRMVVNTESNVLMFQFEHIKWQYAVEKTKQKKNKEKEEEKEENSLMEILSKCNIQVHSPRESVSSKQTVIQELLPGKPPKSRVLLKPAKFSSAVLIEELQSQGKSKSPRRDADDVEKAQKQGQLETPGKLPSHPKKKSWKIPMSPDQFLLTVSALQHARNSGEFAYPCRPQTEITDVWGPSISYPRKVLNFKGKSIQRAVDRLRLSNPPIDVKRTSIPLEIQKLQPNLKISLHSPRAQSTIPQPMIIRSRFSGSLKGGDQVTSSIERAVCSTGPLTSMQVIKPNRMLAPQVGTATLSLKKERPRIYTALDPFRVNAEFVLLTVKEEKEHQEAKMKEYQARESTGVVDPGKASKAAWIRKIKGLPIDNFTKQGKTAAPELGQNVFI | failed
2 | MAVLPPDPVFSLRSPDMGAVNSLCFQESDRLLAGTIKGSVFLWDLQTNRSALHFEVGSDPITSLHHTPDRLVTQEKGGTITMFSIGGSSYVKERSIPGNHLGFCRSALHTNTSKTNEQLLFYPCEESSIGVLHVTDAAAPTQILVPDDPQLPKLGSVTCFKPFECASQLFLLAGYESGHFLTWDISSSVILDVMELAQDATSVDYDPVTNRGIVGGPTDKLISFSYQRSSMQMQLGSELCIKNPGVNGVRIRPDQKVFASAGWDGRIRIFSWKSLRPLAVLTQHKNGGVMDLAFSSQQVAMWHAPIMAAAGMDGQISLWDLYN | failed
3 | MNNHQTPQATSPLAAWLCYLEHLHSQPIELGLERVKQVAERLDLLKPAPKIFTVAGTNGKGTTCCTLEAILLAAGLRVGVYSSPHLLRYTERVRIQGQELSEAEHSHSFAQIEAGRGDISLTYFEFGTLSALQLFKQAKLDVVILEVGLGGRLDATNIVDSDVAAITSIALDHTDWLGYDRESIGREKAGVFRGGKPAVVGEPDMPQSIADVAAELGAQLYRRDVAWKFSQQEPFDQQEPVDQQINGWHWQCGERQLTGLPVPNVPLANAATALAVLHYSELPLSDEAIRQGLQAASLPGRFQVVSEQPLLILDVAHNPHAARYLVNRLAQVINPVNASKQGKVRAVVGMLSDKDIAGTLACLSERVDEWYCAPLEGPRGASAGQLAEHLVSARQFSDVETAWRQAMQDADTQDVVIVCGSFHTVAHVMAALHL | not failed
4 | MESVYLFSSGTLKRKANTICLETESGRKYIPVENVMDIKVFGEVDLNKRFLEFLSQKRIPIHFFNREGYYVGTFYPREYLNSGFLILKQAEHYINQEKRMLIAREIVSRSFQNMVDFLKKRKVRADSLTRYKKKAEEASNVSELMGIEGNAREEYYSMIDSLVSDERFRIEKRTRRPPKNFANTLISFGNSLLYTTVLSLIYQTHLDPRIGYLHETNFRRFSLNLDIAELFKPAVVDRLFLNLVNTRQINEKHFDEISEGLMLNDEGKSLFVKNYEQALRETVFHKKLNRYVSMRSLIKMELHKLEKHLIGEQVFGSEE | not failed
5 | MFARFLAQLDFVLTCDRLKTALRTTRLHDGSRLENSAEHSWHLALLALTLAEYAPTGTDVGRVVRLLLMHDLVEIGAGDLSFDAPAEAQAAQQEAEARAAAELFGLLPTDQAAEFLGLWQEFEARQTTEVRFARALDALQPMLLTWGPGAQGCAASHPELTHLRVLGLKEKHLREFPELWAAAQGVMAQAQARGVLQPLEHHHHHH | failed
6 | MAVRVCCHAPPGVSNHLFTFCAGNLTTGFSGGSVTSQKGGAAGLPTCSRRCPRGCLPGSDPLPRHPRRYAPPVTPPVTPPTTPAPRSRARMLELVFPKDTNYHGTAFGGWVLALMDKAASVAAVRHAGGNVVTARMDGVDFHVPIRVGDAVALDARVIRVGRSSMTIRVDVYRENMASGEQQLATGGLFTFVALGEDGKPRPVPPLPEGSTDSEQPDYEARPLEHHHHHH | failed
7 | VTRRIAICAPSTPFTREDSARVIALAAAEFPDLSLSFHEQCFASEGHFAGSDALRLSAFLECANDDAFEAVWFVRGGYGANRIAEDALARLGRAASAKQYLGYSDAGTLLAALYAHRIGRSVHAPMPVDIRRPEGESAVRRTLGWLAGAREGLEPTLGAGAPAVAFNLMTLAMLCGTRLLPDLSGHVVMIEEVAEHHYAVDRLLFHVTSCLADAGIAGLRLGRVSDVPENDRPFGCSVEEMARHWCHRAGIAFLGTADIGHDVDNRIVPFGLA | not failed
8 | RIKPGPNGRALLFIHGTFSTTDGSFGDLASAEFFGELARTYGNAIYGFDHYSVSVTPEKNASDILKTLPSGGIDCDVVTHSRGGLVLRTLNERQGDLSQGKRFRLQRAALVACPNEGTQLATPDRWQGTLGWLANLLDLFPPNPITSNAALVMHWVTWFAKVGVAAAEG | failed
9 | MKHFLTLRDFSKEEILSLVNHASELKKEPKKLLQDKTLAMIFEKNSTRTRMAFELAITELGGKALFLSSNDLQLSRGEPVKDTARVIGAMVDFVMMRVNKHETLLEFARYSKAPVINALSELYHPTQVLGDLFTIKEWNKMQNGIAKVAFIGDSNNMCNSWLITAAILGFEISIAMPKNYKISPEIWEFAMKQALISGAKISLGYDKFEALKDKDVVITDTWVSMGEENEKERKIKEFEGFMIDEKAMSVANKDAILLHCLPAYRGYEVSEEIFEKHADVIFEEARNRLYVVKALLCFLDNQRGRE | not failed
10 | PDHGKAEWFRGADGATLRAATFFPAGPARGSVVLSPGRSEPLEKYFEVVDDLLARDFAVLLHDWRGQGLSARALPDRLKGHARGFKTFVSDYEALLDAFETRMPKPWIAVSHSMGGCLTTLALAQGETRFAAAVLSAPMLGLNTAGVPPWLARPLAFVMSRVGLAGEYVQTPYDPLTQTFQGDGLTHDETRYDRYQAQLRAHPEIALGGMTWGWADFAISACAWLRRSKSVEAIAIPVIILGAELDNRVLNADSESIARRIPKGRYVEVPGAFHEILVETDARRALFWQAFDE | failed
11 | MAQEEAGRLPQVLARVGTSHGITDLACKLRFYDDWAPEYDQDVAALKYRAPRLAVDCLSQALQGPPHDALILDVACGTGLVAVELQARGFLQVQGVDGSPEMLKQARARGLYHHLSLCTLGQEPLPYPKGTFDAVIIVGALSEGQVPCSAIPELLRVTKPGGLVCLTTRTNPSNLPYKEALEAALDSLEQAGAWERLVTQPVDHWELATSEQESGLATCANDGFISGVIYLYRKQETAQGERGRLSIQPLIDH | failed
12 | MNFNRFTQRAKKAIDLAFESAKSLGHNIVGSEHILLGLLREEEGIAAKVLSKVGFTEAYLEGKIVDMEGKGEEISEDIVLSPRSKQILELSGMFANKLKTNYIGTEHILLAIIQEGEGIANKILNYAGVNDRTLAQLTIDMMG | not failed
13 | MPPLCPLPTGGKRTNLHQYRHATRAMTDRLSPERRRYLMQQVRSKNTRPEKAVRSLLHSIGYRFRLHRKDLPGTPDIVFPSRRLVLFVHGCFWHGHGCRIGQLPKSRLDYWSPKIEANRARDQRKEAALAAEGWRVAVVWQCELSDLGALEARLRNILDPS | failed
14 | MVIFNYILVCIIFGTTFLTIKIGIEAGAPPLFSAGIRFFLAGIILMIIFKLKRKEIMPHIFSKRIMYAGFCLTFMTFASLYWSEQYISSGLAAVLSATGPMMILLIQAKRNREKLQKEQLVALVIALIGVIFVSLPGMHQQVSFIWSIACIVLVIGELFYGIGSIRSKEILSDLSNVSPFLINGIQMFYGGILLLIASIIVEQPNVTVLTSWSVQWPILYLIFIGSIGGHGLYYWLLSKTNPVFPSTWLYVSPLIAIIVGYIILGEPLNPTMGMGACLILIGVFLANRSTLRTYFKKGRLLEKEM | failed
15 | MNKFKLGSDFDHLVNSLSDVELLNLFIQSCSQTTINGVPVPRFPPEEIQKQFVGASYEHALYEAYLFYRHIKEYAQNLGVPLNKESKVLDFGCGWGRIIRFLFKDASDQNLLGIDVDPAMITLCNETLGRGIYKTASPHPPVEFISDNSLDIIFAYSVFSHLSEATAENWVKEFSRVLRPGGIFIATTQARYFLDFCQQFQEHPELIQTGWHKTLSQAFPDIHRAISDYENGKFVHSPTGAGDVRNSSFYGETVIPRTYIENHYEKYLKLQDFFDDVNRLPQALFVLQKILEHHHHHH | not failed
16 | WERLRMLLEVCQFSRDASVAEAWLIAQEPYLASGDFGHTVDSVEKLIKRHEAFEKSTASWAERFAALEKPTTLELKERQIA | failed
17 | MGSSHHHHHHSSGRENLYFQGMLLHSVQTPRGEILNVSEQEARDVFGASEQAIADARKATILQTLRIERDERLRACDWTQVQDVVLTADQKATWAKYRQALRDLPETVTDLSQIVWPQLPV | not failed
